Assay results reported in PMC7538161, “Breakage of the oligomeric CaMKII hub by the regulatory segment of the kinase” (eLife, 2020).
Values joined by “and” are separate entries in the source; they are usually repeats but may differ in a detail not shown here. Equal values may be shown once. Non-standard residues stand in square brackets, D forms with d. No end group written: not given here. pT = C[C@@H](OP(=O)(O)O)[C@H](N)C(=O)O

B1: human CaMKII-α hub domain (domain or fragment, UniProt Q9UQM7 345-475, looked up)
chain: VRKQEIIKVTEQLIEAISNGDFESYTKMCDPGMTAFEPEALGNLVEGLDFHRFYFENLWSRNSKPVHTTILNPHIHLMGDESACIAYIRITQYLDAGGIPRTAQSEETRVWHRRDGKWQIVHFHRSGAPSV
notes: Ca2+/calmodulin-dependent protein kinase II alpha (CaMKII-α), human, hub domain, residues 345-475 of Uniprot Q9UQM7; Forms dodecameric and tetradecameric assemblies; also called the hub; hub assembly; source: E. coli BL21, purified (Ni-NTA, PreScission cleavage, Ni-NTA flow-through, Superose 6 gel filtration); not shown: His6, N-terminal, cleaved; copies: 12 or 14
B2: Peptide B^phos (peptide)
peptide: AIL[pT]TMLATRNFSGGKSGGNKK
modifications: also: phosphothreonine at Thr 305
notes: also called phosphorylated Peptide B; source: bought: Elim Biopharm (lyophilized powder)
B3: Peptide A (peptide)
peptide: LKKFNARRKLKGAILTTMLA
notes: source: bought: Elim Biopharm (lyophilized powder)
B4: Peptide B (peptide)
peptide: AILTTMLATRNFSGGKSGGNKK
notes: as for B3
B5: Peptide G (peptide)
peptide: RSTVASCMHRQETVDCLKKFNA
notes: also called autonomy site peptide; source: bought: Elim Biopharm (lyophilized powder)
B6: Peptide H, CaMKIINTide (peptide)
peptide: KRPPKLGQIGRSKRVVIEDDRIDDVLK
notes: as for B3
B7: Peptide A^phos (peptide)
peptide: LKKFNARRKLKGAIL[pT]TMLA
modifications: also: phosphothreonine at Thr 305
notes: also called phosphorylated Peptide A; source: bought: Elim Biopharm (lyophilized powder)

Experiments:
[1] = biological target: the molecule itself; experiment: native MS; hub alone, 120 µM subunit concentration in 400 mM ammonium acetate, 5 min at room temperature; nanoelectrospray, sample cone voltage 50 V, source 80°C
[2] = biological target: B1; experiment: native MS; hub 120 µM (subunits) mixed with 1 to 100 µM phosphorylated peptide, ~400 mM ammonium acetate, injected at once without incubation; sample cone voltage 50 V; conditions: both partners purified
[3] = biological target: B1; experiment: native MS; hub 120 µM (subunits) mixed with 1 µM to 1 mM unphosphorylated peptide, ~400 mM ammonium acetate, incubated 5 min at room temperature; nanoelectrospray, sample cone voltage 50 V, source 80°C; conditions: both partners purified

B1 was tested, and the “stoichiometry N” value [1] was 12 and 14.

B2: binds [2].

B3: binds [3].

B4: binds [3].

B5: binds [3].

B6: binds [3].

B7: binds [2].
